Results from patent US20240117018A1.

What was measured:
Assay in all cases: cell-based or functional assay
[1] = molecular target: HIV-1 Env pseudovirus X2131_C1_B5 (HIV-1)
[2] = molecular target: HIV-1 Env pseudovirus C2101.c01 (HIV-1)
[3] = molecular target: HIV-1 Env pseudovirus T250-4 (HIV-1)
[4] = molecular target: HIV-1 Env pseudovirus 6545.v4.c1 (HIV-1)
[5] = molecular target: HIV-1 Env pseudovirus X1632_S2_B10 (HIV-1)
[6] = molecular target: HIV-1 Env pseudovirus X2088_c9 (HIV-1)
[7] = molecular target: HIV-1 Env pseudovirus BJOX009000.02.4 (HIV-1)
[8] = molecular target: HIV-1 Env pseudovirus BJOX015000.11.5 (HIV-1)
[9] = molecular target: HIV-1 Env pseudovirus 211-9 (HIV-1)
[10] = molecular target: HIV-1 Env pseudovirus 3016.v5.c45 (HIV-1)
[11] = molecular target: HIV-1 Env pseudovirus T278-50 (HIV-1)
[12] = molecular target: Env of HIV-1 pseudovirus CNE30 (HIV-1)
[13] = molecular target: Env of HIV-1 pseudovirus ZM214M.PL15 (HIV-1)
[14] = molecular target: Env of HIV-1 pseudovirus SC05_8C11_2344 (HIV-1)
[15] = molecular target: Env of HIV-1 pseudovirus Ce1172_H1 (HIV-1)
[16] = molecular target: Env of HIV-1 pseudovirus Ce0393_C3 (HIV-1)
[17] = molecular target: Env of HIV-1 pseudovirus AC10.0.29 (HIV-1)
[18] = molecular target: Env of HIV-1 pseudovirus ZM247v1(Rev-) (HIV-1)
[19] = molecular target: Env of HIV-1 pseudovirus RHPA4259.7 (HIV-1)
[20] = molecular target: Env of HIV-1 pseudovirus Du172.17 (HIV-1)
[21] = molecular target: Env of HIV-1 pseudovirus 263-8 (HIV-1)
[22] = molecular target: Env of HIV-1 pseudovirus 6535.3 (HIV-1)
[23] = molecular target: Env of HIV-1 pseudovirus T257-31 (HIV-1)
[24] = molecular target: Env of HIV-1 pseudovirus MS208.A1 (HIV-1)

In the case of 3BNC117 (antibody), the IC50 (Titer in TZM.bl cells) [1] was 0.43 µg/mL, the IC80 (Titer in TZM.bl cells) [1] was 1.96 µg/mL and the IC50 (Titer in TZM.bl cells) [2] was 0.05 µg/mL. For the same substance, the IC80 (Titer in TZM.bl cells) [2] was 0.31 µg/mL, the IC50 (Titer in TZM.bl cells) [3] was > 15 µg/mL and the IC80 (Titer in TZM.bl cells) [3] was > 15 µg/mL. The IC50 (Titer in TZM.bl cells) [4] was > 50 µg/mL, the IC80 (Titer in TZM.bl cells) [4] was > 50 µg/mL and the IC50 (Titer in TZM.bl cells) [5] was 15.7 µg/mL. For the same substance, the IC80 (Titer in TZM.bl cells) [5] was > 50 µg/mL, the IC50 (Titer in TZM.bl cells) [6] was > 50 µg/mL and the IC80 (Titer in TZM.bl cells) [6] was > 50 µg/mL. The IC50 (Titer in TZM.bl cells) [7] was 0.4 µg/mL, the IC80 (Titer in TZM.bl cells) [7] was 1.79 µg/mL and the IC50 (Titer in TZM.bl cells) [8] was 0.05 µg/mL. For the same substance, the IC80 (Titer in TZM.bl cells) [8] was 0.32 µg/mL, the IC50 (Titer in TZM.bl cells) [9] was 0.35 µg/mL and the IC80 (Titer in TZM.bl cells) [9] was 1.28 µg/mL. For the same substance, the IC50 (Titer in TZM.bl cells) [10] was 1.38 µg/mL, the IC80 (Titer in TZM.bl cells) [10] was > 30 µg/mL and the IC50 (Titer in TZM.bl cells) [11] was > 15 µg/mL. For the same substance, the IC80 (Titer in TZM.bl cells) [11] was > 15 µg/mL.
With 8ANC195 (antibody) the IC50 (Titer in TZM.bl cells) [1] was 3.47 µg/mL, the IC80 (Titer in TZM.bl cells) [1] was > 50 µg/mL and the IC50 (Titer in TZM.bl cells) [2] was 0.48 µg/mL. The IC80 (Titer in TZM.bl cells) [2] was 3.54 µg/mL, the IC50 (Titer in TZM.bl cells) [3] was > 50 µg/mL and the IC80 (Titer in TZM.bl cells) [3] was > 50 µg/mL. For the same substance, the IC50 (Titer in TZM.bl cells) [4] was 26.9 µg/mL, the IC80 (Titer in TZM.bl cells) [4] was > 50 µg/mL and the IC50 (Titer in TZM.bl cells) [5] was 0.47 µg/mL. For the same substance, the IC80 (Titer in TZM.bl cells) [5] was 4.11 µg/mL, the IC50 (Titer in TZM.bl cells) [6] was > 50 µg/mL and the IC80 (Titer in TZM.bl cells) [6] was > 50 µg/mL. For the same substance, the IC50 (Titer in TZM.bl cells) [7] was 0.64 µg/mL, the IC80 (Titer in TZM.bl cells) [7] was 3.09 µg/mL and the IC50 (Titer in TZM.bl cells) [8] was 0.97 µg/mL. The IC80 (Titer in TZM.bl cells) [8] was 4.3 µg/mL, the IC50 (Titer in TZM.bl cells) [9] was 1.34 µg/mL and the IC80 (Titer in TZM.bl cells) [9] was 8.43 µg/mL. The IC50 (Titer in TZM.bl cells) [10] was 0.87 µg/mL, the IC80 (Titer in TZM.bl cells) [10] was > 50 µg/mL and the IC50 (Titer in TZM.bl cells) [11] was > 50 µg/mL. The IC80 (Titer in TZM.bl cells) [11] was > 50 µg/mL.
10-1074 (antibody) was tested, and the IC50 [12] was 0.363 µg/mL, the IC80 [12] was 1.2 µg/mL and the IC50 [13] was 0.174 µg/mL. The IC80 [13] was 2.37 µg/mL, the IC50 [14] was 0.052 µg/mL and the IC80 [14] was 0.123 µg/mL. The IC50 [15] was 0.047 µg/mL, the IC80 [15] was 0.166 µg/mL and the IC50 [16] was > 50 µg/mL. The IC80 [16] was > 50 µg/mL, the IC50 [17] was 0.022 µg/mL and the IC80 [17] was 0.11 µg/mL. The IC50 [18] was 0.042 µg/mL, the IC80 [18] was 0.186 µg/mL and the IC50 [19] was 0.021 µg/mL. For the same substance, the IC80 [19] was 0.118 µg/mL, the IC50 [20] was 0.121 µg/mL and the IC80 [20] was 0.43 µg/mL. The IC50 [21] was 0.666 µg/mL, the IC80 [21] was 6.53 µg/mL and the IC50 [22] was 0.014 µg/mL. The IC80 [22] was 0.026 µg/mL, the IC50 [23] was > 50 µg/mL and the IC80 [23] was > 50 µg/mL. The IC50 [24] was > 50 µg/mL and the IC80 [24] was > 50 µg/mL.
10E8 (antibody) showed an IC50 [12] of 1.56 µg/mL, an IC80 [12] of 9.84 µg/mL and an IC50 [13] of 1.96 µg/mL. The IC80 [13] was > 10 µg/mL, the IC50 [14] was 0.665 µg/mL and the IC80 [14] was 2.74 µg/mL. It also gave an IC50 [15] of 0.722 µg/mL, an IC80 [15] of 4.82 µg/mL and an IC50 [16] of 1.18 µg/mL. For the same substance, the IC80 [16] was 7.42 µg/mL, the IC50 [17] was 0.132 µg/mL and the IC80 [17] was 1.53 µg/mL. It also gave an IC50 [18] of 0.506 µg/mL, an IC80 [18] of 6.75 µg/mL and an IC50 [19] of 0.728 µg/mL. The IC80 [19] was 5.28 µg/mL, the IC50 [20] was 0.109 µg/mL and the IC80 [20] was 0.837 µg/mL. The IC50 [21] was 0.196 µg/mL, the IC80 [21] was 1.73 µg/mL and the IC50 [22] was 0.081 µg/mL. For the same substance, the IC80 [22] was 1.32 µg/mL, the IC50 [23] was 0.88 µg/mL and the IC80 [23] was 5.78 µg/mL. The IC50 [24] was 0.609 µg/mL and the IC80 [24] was 3.72 µg/mL.
For PG9 (antibody), the IC50 [12] was > 50 µg/mL, the IC80 [12] was > 50 µg/mL and the IC50 [13] was > 50 µg/mL. The IC80 [13] was > 50 µg/mL, the IC50 [14] was 0.892 µg/mL and the IC80 [14] was 4.28 µg/mL. The IC50 [15] was 0.07 µg/mL, the IC80 [15] was 0.206 µg/mL and the IC50 [16] was 0.02 µg/mL. It also gave an IC80 [16] of 0.055 µg/mL, an IC50 [17] of 0.117 µg/mL and an IC80 [17] of 0.845 µg/mL. For the same substance, the IC50 [18] was 0.112 µg/mL, the IC80 [18] was 0.323 µg/mL and the IC50 [19] was 22.6 µg/mL. For the same substance, the IC80 [19] was > 50 µg/mL, the IC50 [20] was 0.606 µg/mL and the IC80 [20] was 1.6 µg/mL. The IC50 [21] was 0.293 µg/mL, the IC80 [21] was 1.05 µg/mL and the IC50 [22] was 0.176 µg/mL. It also gave an IC80 [22] of 0.627 µg/mL, an IC50 [23] of 0.037 µg/mL and an IC80 [23] of 0.124 µg/mL. For the same substance, the IC50 [24] was 0.005 µg/mL and the IC80 [24] was 0.014 µg/mL.
For PG16 (antibody), the IC50 [12] was > 50 µg/mL, the IC80 [12] was > 50 µg/mL and the IC50 [13] was > 50 µg/mL. The IC80 [13] was > 50 µg/mL, the IC50 [14] was 0.07 µg/mL and the IC80 [14] was 1.62 µg/mL. The IC50 [15] was 0.007 µg/mL, the IC80 [15] was 0.037 µg/mL and the IC50 [16] was 0.002 µg/mL. For the same substance, the IC80 [16] was 0.006 µg/mL, the IC50 [17] was 0.023 µg/mL and the IC80 [17] was 0.417 µg/mL. It also gave an IC50 [18] of 0.016 µg/mL, an IC80 [18] of 0.189 µg/mL and an IC50 [19] of 0.375 µg/mL. For the same substance, the IC80 [19] was 3.92 µg/mL, the IC50 [20] was 0.033 µg/mL and the IC80 [20] was 0.213 µg/mL. The IC50 [21] was 0.347 µg/mL, the IC80 [21] was 4.97 µg/mL and the IC50 [22] was 0.653 µg/mL. For the same substance, the IC80 [22] was > 50 µg/mL, the IC50 [23] was 0.007 µg/mL and the IC80 [23] was 0.021 µg/mL. It also gave an IC50 [24] of 0.002 µg/mL and an IC80 [24] of 0.004 µg/mL.
VRC07 (antibody) was tested, and the IC50 (Titer in TZM.bl cells) [1] was 0.219 µg/mL, the IC80 (Titer in TZM.bl cells) [1] was 1.03 µg/mL and the IC50 (Titer in TZM.bl cells) [2] was 0.238 µg/mL. For the same substance, the IC80 (Titer in TZM.bl cells) [2] was 1.4 µg/mL, the IC50 (Titer in TZM.bl cells) [3] was > 50 µg/mL and the IC80 (Titer in TZM.bl cells) [3] was > 50 µg/mL. For the same substance, the IC50 (Titer in TZM.bl cells) [4] was > 50 µg/mL, the IC80 (Titer in TZM.bl cells) [4] was > 50 µg/mL and the IC50 (Titer in TZM.bl cells) [5] was 0.023 µg/mL. For the same substance, the IC80 (Titer in TZM.bl cells) [5] was 0.107 µg/mL, the IC50 (Titer in TZM.bl cells) [6] was > 50 µg/mL and the IC80 (Titer in TZM.bl cells) [6] was > 50 µg/mL. The IC50 (Titer in TZM.bl cells) [7] was 0.806 µg/mL, the IC80 (Titer in TZM.bl cells) [7] was 2.9 µg/mL and the IC50 (Titer in TZM.bl cells) [8] was 0.054 µg/mL. For the same substance, the IC80 (Titer in TZM.bl cells) [8] was 0.479 µg/mL, the IC50 (Titer in TZM.bl cells) [9] was 5.92 µg/mL and the IC80 (Titer in TZM.bl cells) [9] was 38 µg/mL. For the same substance, the IC50 (Titer in TZM.bl cells) [10] was 0.095 µg/mL, the IC80 (Titer in TZM.bl cells) [10] was 0.392 µg/mL and the IC50 (Titer in TZM.bl cells) [11] was > 50 µg/mL. For the same substance, the IC80 (Titer in TZM.bl cells) [11] was > 50 µg/mL.
